Laboratory results taken from patent publication US20260055141A1, “COMPOSITIONS AND METHODS FOR CONTROLLING FOOD INTAKE, ENERGY EXPENDITURE, AND BODY WEIGHT FOR THE TREATMENT OF OBESITY AND METABOLIC DISEASES” (The Trustees of the University of Pennsylvania, priority 2022, published 2026).
No end group written: not given here.

Columns and labels:
[1] = target: T1, human GPR75 (372-540 aa region), His-tagged (human, UniProt O95800 372-540); experiment: SPR (Nicoya OpenSPR), His-tagged GPR75 on NTA sensor, one-to-one fit; curve at 4.9 µM
T1 construct: range 372-540; also called G-Protein Receptor 75; not shown: His tag
T1 sequence (O95800 372-540 limits assumed): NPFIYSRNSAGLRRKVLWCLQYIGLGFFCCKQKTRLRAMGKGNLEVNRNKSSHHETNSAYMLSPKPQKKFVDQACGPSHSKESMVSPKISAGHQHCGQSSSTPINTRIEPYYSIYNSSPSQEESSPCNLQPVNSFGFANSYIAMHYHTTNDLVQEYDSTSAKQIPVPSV

[2] = target: T1, human GPR75 (372-540 aa region), …; experiment: SPR (Nicoya OpenSPR), His-tagged GPR75 on NTA sensor, one-to-one fit; curve at 12.3 µM
[3] = target: T1, human GPR75 (372-540 aa region), …; experiment: SPR (Nicoya OpenSPR), His-tagged GPR75 on NTA sensor, one-to-one fit; curve at 4.93 µM
[4] = target: T1, human GPR75 (372-540 aa region), …; experiment: SPR (Nicoya OpenSPR), His-tagged GPR75 on NTA sensor, one-to-one fit; curve at 49.3 µM
[5] = target: T1, human GPR75 (372-540 aa region), …; experiment: SPR (Nicoya OpenSPR), His-tagged GPR75 on NTA sensor, one-to-one fit; curve at 92.4 µM
[6] = target: T1, human GPR75 (372-540 aa region), …; experiment: SPR (Nicoya OpenSPR), His-tagged GPR75 on NTA sensor, one-to-one fit; curve at 24.65 µM
[7] = target: T1, human GPR75 (372-540 aa region), …; experiment: SPR (Nicoya OpenSPR), His-tagged GPR75 on NTA sensor, one-to-one fit; curve at 123.23 µM
[8] = target: T1, human GPR75 (372-540 aa region), …; experiment: SPR (Nicoya OpenSPR), His-tagged GPR75 on NTA sensor, one-to-one fit; second curve at 12.3 µM
[9] = target: T1, human GPR75 (372-540 aa region), …; experiment: SPR (Nicoya OpenSPR), His-tagged GPR75 on NTA sensor, one-to-one fit; second curve at 49.3 µM

Measured: koff

B1: SU75-37 (peptide)
peptide: TFTSDLSKYLEEEVREFIWLKNGGPSDVNTDRPGLLDLK-NH2
notes: Synthetic, non-naturally occurring peptide; also called Drug37; SUODN37
0.0141 s⁻¹: [1] | [2] | [3] | [4] | [5] | [6] | [7] | [8] | [9]
